Measurements from the DeepSol protein solubility set.

assay: soluble on expression in E. coli; label from the status in PepcDB or PDB records

Row | Sequence | soluble on expression in E. coli
1 | MNGSADAGPRPRKYVFITGGVVSSLGKGILTSSLGALLRARGYRVTAIKIDPYVNVDAGTMRPYEHGEVFVTADGAETDLDIGHYERFLDMDLSRGNNLTTGQVYLSVIQKERRGEYLSQTVQVIPHITDEIKERIRKVAEEQKAEIVVVEVGGTVGDIESLPFLEAIRQFRFDEGEGNTLYLHLTLVPYLETSEEFKTKPTQHSVATLRGVGIQPDILVLRSARPVPEEVRRKVALFTNVRPGHVFSSPTVEHLYEVPLLLEEQGLGRAVERALGLEAVIPNLSFWQEAVRVLKHPERTVKIAIAGKYVKMPDAYLSLLEALRHAGIKNRARVEVKWVDAESLEAADLDEAFRDVSGILVPGGFGVRGIEGKVRAAQYARERKIPYLGICLGLQIAVIEFARNVAGLKGANSTEFDPHTPHPVIDLMPEQLEVEGLGGTMRLGDWPMRIKPGTLLHRLYGKEEVLERHRHRYEVNPLYVDGLERAGLVVSATTPGMRGRGAGLVEAIELKDHPFFLGLQSHPEFKSRPMRPSPPFVGFVEAALAYQERA | soluble
2 | MAHHHHHHMSLTDIEEAETVELLSEDSCSTMSASSEDVGATTVDTSLPLTANATEEQLRRRMLHECACIPELRPQPAWLEESGAAGDGPSASTTEMNWDVAHADHLVVAVRWRVAPTSPGTGCPSLHTTPWVPYAVPLAKVIASRTMAATDTASTVTSTTSSSGGGSSATVQPLGSVQLPLGRSMFLLAAQRSSLVPRAWDSGVAAESLVNVAASISRAQCTLHLHYAAAKTPQAPSSLRTRPVCRSFDVFAISPTTALLGIALQPHQRYHIKRKRGTGKSAHASEDQPCDANGVLTLRVGPYCHVDVALDELPSEPRVSGSAGTCPSITINTYNGRHAHTTRSGQTQDSPAVHRTSACRSGVAREPPAAAMQLQHGSTASLITGDSTAVLATLSEMSDHVALSETSGHEHDGPVVAGSQEVAAAPSHTSITGSLKRRRPAAARGRAAEAVVRRVGNAEAAEGGDVDEADAAVSHSVTTTPSEIVLFTTGMRLSDAEEKTLKELGALVNPHLRLARYARVLAAQRPLVRSVKLLTVLPYVQDVVHQSWLDAVLRTRSLDLPLEGFAYKERKLAGSIESENSFDLRETMRKAPTERQRLFAQQHFWVHKSATPQEPPMNDLKTVVAASGGIITRCVLDADVLVLPKHKPTLSCWRGIAQQLGGTGRASTSSASASTTPTLAQRKQAGVLFVVPDDIFKCVLQQRRLSASSVTLPWQLLTEAAAARGTTGAARVGRRPSQPTRKTPRASTTQRSPRRKSCKRSQ | soluble
3 | MNQEVTAPKEMNQGASNDLLTTSLKNVTRLNTNDPSQMAVLTSQTIWAATHKENQPGAVILVPASEWQLGIASADFIHHPNNGPILFIEKEKIPEMTLKEIKRLNPIGTKDGTQIMVMGDVGTSALEQLKGYKVKQIKETDPAIFAKDVDKEYADITGSYPNSVIIGSSAEEGRLYTTPAVNWISHMPEPLLYTEKNKVPEATIEALKMRKDKANIYVLGPEKIVSKEVEKELSKYGKVTRISGETPTENSIAFAKFKDEKTKFGWGFTKPGHGLSFVSSKTPDLAVAGAPFSHMGKHAPVVLLEEGKASQTVYDFLASIQPKFKDDPTLGPYNHGFLLGNTSDISFETQGILDERLEIVQESGQGHGGH | not soluble
4 | SGLVPGRHMMITMDDIIREGNPTLREVAKEVSLPLSEEDISLGKEMLEFLKNSQDPIKAEELHLRGGVGLAAPQLDISKRIIAVHVPSPDPEADGPSLSTVMYNPKILSHSVQDACLGEGEGCLSVDREVPGYVVRHAKITVSYYDMNGEKHKIRLKNYESIVVQHEIDHINGVMFYDHINDQNPFALKEGVLVIE | soluble
5 | MKAAEHDLLTIELAPRRRDELQIHNKKIAEVDHWLKNVFSESNKQLGVMYLTGPAGSGKSTTVEVMCTEQNIEIIEYSPEYLHNEDFECEKPDFTQLRRFLLRRHGSLRGGGLKKRLLLVTELPDQAYSDAEKFREDLSEVLQHIWHPVIFCLTNSIACWNLNPDRLFTKDFNIMNGIDTVTFNPVADSFMKKALVRASNCLSSPLSDAKLNVIGEEAGGDLRIAMNMLQMNSIGPNADRRSGNSVICASKANREEAFHMIGRILYAKRVNPNVPKPSRFSKRRRKSAPIPEPLVRTELEHDPTDIITMSSMTSEKLLDFLFQNEPIFCSNISKYRYVAETFSMCDFLTGDWTTRKSLPEDYVAQMATRSVMWNNYKEPRPGTLFAVGRPLRSSLEKHTARTKLELQRLPMIGAKDYAALTCPYITIIKDIIDPQRIEYFLSRPMDINWQWGNDKIEEHLEKQYALDYKGRKKHRLPLHKAPKPSGKIIEVVDLEEEEEKFTIEESSDDSFEEF | not soluble
6 | MAHHHHHHMQRYLQRTVPVAPLRLSISGNSSTEGVHADAAPLLESRFLRRLRAEVDREARAEQLCKGTAARAIQQAFRRWAQTRQLQHRHLSIHGIVRPRCEFDPIRAAELDAALCSIQASLRVWASSRLVEARRLKLLQQITSSVLDPACRTTLRCAASIRHINDRQLREVLCRQEAVERRDLLRRHFVFLVCCHQAFFNDPRMWDAGMSIRRIPLYTHHGLLSAETLPVIWGTRTSSSTLNSATEDSVALRGDAVASPLPPESSSFSVTATVDGCIKGWGSPAEPGSSLLEAVGSDWLVGKEEDGGGFDIDAALRLGEYRLLFSPEEWRLLKKLKASSPHPASPLLSSGADGRRAARDAAGLPEAEAGALAAPRGQLQMAPTEAAAKSACSLSYAKAFASALTFLRQPRMVDPSVRCTVQRLNDIRSSTLEMQQELRVHGYLFAAQVAPLLILGFHYQGLARGDADLSCFTTTSAMKTCRPLVAGRVACAATELRRCLIGAVHYSGGAAESVLPVALEEHKCSGKAAARTLSQRLPPAGVSRSMLLPPRAAPTAGLMRDGFANPGTEALYHAPAKTTRRAGGADPRCGSSHTASRHGSAIRVALAAEWSRRLASSADEVGPYWCEFLSSTGLDGLVTAAGRRGETPGEADAAYQTRASLPSPPLPTRVRRGLESHLVHGGSSYLLQDFMPSLMRRRAHSRAGPQPLDAATGSVVVAVACAGASPSTSVSTSTCGMVHAGEWWDAVERLLLREYTNRRELLTNEAVQRSSIDILRCTAHPSADESVAGV | not soluble
7 | MDTSSFETDLSLFKYDDLEALPDEYRELTPTARTERIEAARAELGDDVVVLGHNYQRREIVEHADFVGDSYQLSKEAANADADYVIFGGVTFMAESADIITDDSQSVILPSMEASCPMAGMAEALQVDAAWADITAAAPDETIIPITYMNSYADLKAFCAEQGGLVCTSSNAHRAFEWAFERGDKVLFLPDKHLGENTAHRLGMADATVEWDPWAAEGKTAEEVADADIVLWDGYCQVHERFTPEHVAEVRADHEDANVVVHPECRREVVEAADVVGSTATITETVADADPGETWAIGTEIHLANHLQRWHPEVNVVPLCGDACMDCNAMRQIDPNYLAWVLEELVEGRERNVIEVDSEEAELAQVGLDRMLELLEHHHHHH | not soluble
8 | MKTLGYILMENGEKIDLEFFPEEAPKTVENFKKLAEQGFYDGVTFHRVIPGFVSQGGDPTGTGAGGPGYSIPCETDGNPHRHLVGSLSMAHAGRNTGGSQFFIVHEPQPHLDGVHTVFGKATSGIETVLNMRQGDVMKEVKVWEE | not soluble
9 | MSLKAVTQCSQFFHEVSLPHLKPETTYYYRIPAANGTTESDILSFTTARAPGDKRSFTVAVLNDMGYTNAQGTHRQLLKAANEGAAFAWHGGDLSYADDWFSGILPCADDWPVCYNGTSTQLPGGGPIPEEYKQPLPQGETANQGGPQGGDMSVLYESNWDLWQQWMTNLTVKIPHMVMPGNHESACAEFDGPGNPITAYLNEGIPNGTWPAENLTYYSCPPSQRNFTAFQHRFHMPGKETGGVGNFWYSFDYGLAHFVSLDGETDFANSPFSTFERDLTGNETHPRPEETETTDSGPFGTIDGDRYDDNTAYAQYQWLKRDLASVDRTKTPWVFVMSHRPMYSSAYSSYQTNVRNAFENLLLQYGVDAYLSGHIHWYERMFPMTANGTIDESSIADNHTYTTNSGKSMTHIINGMAGNIESHSWFDEGEGLTEITAKLDRTHFGFSKLTVVNETVVNWEFVKGDDGSTGDWLTLVKGETCTINEGHHHHHH | not soluble
